Where no end group is shown, it is not given here.
Experiments:
[1] = target: T1, Human receptor grade IGFBP-3 (insulin-like growth factor binding protein 3) (human, UniProt P17936 28-291); assay: VN-peptide array, ligand overlay, immunoblot/ECL
T1 construct: Bought recombinant protein, overlaid in solution on the VN-peptide array

[2] = target: T2, Human receptor grade IGFBP-5 (insulin-like growth factor binding protein 5) (human, UniProt P24593 21-272); assay: VN-peptide array, ligand overlay, immunoblot/ECL
T2 construct: Bought recombinant protein, overlaid in solution on the VN-peptide array
T2 sequence (P24593 21-272 limits assumed): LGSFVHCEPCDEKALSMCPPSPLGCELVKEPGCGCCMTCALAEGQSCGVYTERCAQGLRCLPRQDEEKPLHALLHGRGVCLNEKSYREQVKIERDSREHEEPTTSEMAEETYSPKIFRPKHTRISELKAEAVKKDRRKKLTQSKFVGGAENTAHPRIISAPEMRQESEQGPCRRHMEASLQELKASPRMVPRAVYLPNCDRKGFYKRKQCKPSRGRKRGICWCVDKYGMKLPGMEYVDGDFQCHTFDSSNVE

[3] = target: T3, Human receptor grade IGF-II (insulin-like growth factor II) (human, UniProt P01344 25-91); assay: VN-peptide array, ligand overlay, immunoblot/ECL, TotalLab spot intensity
T3 construct: Bought recombinant protein, overlaid in solution on the VN-peptide array
T3 sequence (P01344 25-91 limits assumed): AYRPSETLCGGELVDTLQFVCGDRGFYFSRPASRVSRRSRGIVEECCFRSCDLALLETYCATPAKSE
Protocol: Methanol or ethanol was used to enhance the rehydration of peptide spots that might be hydrophobic. The peptides spotted onto the membranes were activated by incubating in 3 mL of 70% ethanol for five mins. The membranes were subsequently washed three times, 10 minutes each, in 10 mL TBS (Tris Buffered Saline; 8 g NaCl, 0.2 g KCl and 6.1 g Tris Base into 1000 mL of milliQ water, pH 7) with gentle rocking. Membrane blocking was performed by incubating in 10 mL casein-based membrane blocking buffer (MBS; Sigma-Aldrich) overnight at 4° C. The following day, the membranes were washed twice, 10 minutes each, in 10 mL TBS-T (TBS+0.05% Tween-20; pH 7).
Ligands used to test binding to VN-peptides were IGFBP-3, IGFBP-5 and IGF-II. For ligand binding, four separate solutions of 1 μg/mL ligand in 10 mL MBS buffer were prepared and each membrane was incubated in one of the four ligand solutions overnight at 4° C., with gentle rocking. […] The following day, the membranes were washed three times, 10 minutes each, in 10 mL TBS-T.
The binding of the ligands to peptides within the membrane was detected using immunoblotting. The membranes were incubated overnight at 4° C. with 10 mL primary antibody solution (in MBS buffer) targeting the respective ligands. The antibodies used were anti-IGFBP-3 (1:10,000), anti-IGFBP-5 (1:10,000) and anti-IGF-II (1:5000) to detect IGFBP-3, IGFBP-5 and IGF-II respectively. The following day, the membranes were washed three times, 10 minutes each, in 10 mL TBS-T and incubated with 10 mL HRP-conjugated secondary IgG antibody diluted 1:15,000 in MBS buffer for 1 hour at room temperature. Following a further three washes of 10 minutes each, the peptide spots were visualized using ECL. The membranes were exposed onto x-ray films and developed using a film processor (AGFA CP 1000), or were imaged directly using the ChemiDoc™ XRS system (BioRad).

[4] = target: T3, Human receptor grade IGF-II …; assay: VN-peptide array, ligand overlay, immunoblot/ECL
[5] = target: T3, Human receptor grade IGF-II …; assay: rests on the VN-peptide array
[6] = target: T1, Human receptor grade IGFBP-3 …; assay: rests on the VN-peptide array

T1 sequence (P17936 28-291 limits assumed): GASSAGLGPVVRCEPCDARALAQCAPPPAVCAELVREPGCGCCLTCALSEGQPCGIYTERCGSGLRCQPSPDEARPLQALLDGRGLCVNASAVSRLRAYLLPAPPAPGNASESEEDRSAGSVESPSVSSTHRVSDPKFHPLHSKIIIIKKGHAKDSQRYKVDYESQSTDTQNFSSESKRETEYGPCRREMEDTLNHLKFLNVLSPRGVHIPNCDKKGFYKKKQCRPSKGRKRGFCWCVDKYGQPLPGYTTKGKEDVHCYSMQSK

binding result [1]	binding result [2]	Intensity (against -ve control) [3]	binding result [4]	binding result [5]	binding result [6]	Binder
binds	binds	12 fold over negative controls				DELCSYYQSCCTDYTA (not fully specified (N-terminus); cysteine pairing not given here; also: free end capped by acetylation, immobilised on cellulose membrane (SPOT synthesis)) [VN-peptide 1B (array grid A14)]
no binding (tested: 1 µg/mL ligand)	no binding (tested: 1 µg/mL ligand)		no binding (tested: 1 µg/mL ligand)			KTYLFKGSQYWRFEDG (also: capped by acetylation and immobilised on array, free peptide in migration assays, On the array it was immobilised and capped by acetylation; in the migration assays it was a free peptide; also called Pneg; negative peptide) [Non-binding negative control VN-peptide (KTYLFKGSQYWRFEDG)]
				binds	binds	RVNLRTRRVDTVDPPYPRS (Free synthetic peptide (Mimotopes) in the migration and growth assays; The array carried only its overlapping 16-mers 8A-8D; also called Peptide 8; motif-8 mimic) [VN peptide P8 (RVNLRTRRVDTVDPPYPRS)]

— patent publication US20150299263A1 (FACTOR THERAPEUTICS, published 2015)
